Test: soluble on expression in E. coli; label from the status in PepcDB or PDB records
In the case of “MHEVVTISVSQRANHLTTQFFNIQEGYLQLSKEQQVNDSKIFLNSVVDKVSKTISYAPRALLWDARTGNGSLGTYQYSESQDYHFGNEDKFKEQTVIKTHPRIPKSEYQSSLDAGAPLPCLNRENTMYWSDYSKLIYGPSSFNILRNWYHDTENPNQPDFQNLGERKFDRYSIGYDEFTENYLQEFFDGNLHRELEKCDTLQGFNLVSDMESGWGGFSSALLVELRNELPKKAVFSWGHNEDDPFTDDFPMKRLSKKWLPIISNKLRSTINMMQESDLYFPLYAAPGLTNWETAGKSCRIFDSINATISQSNLEQRKTMDYLTTAITLGYSSRNMVTGMVIGDTDYSFCSRVLPFKNSHKPNSTHIFSKSFIDRGNQTHKHHSEPDSRSKMIEMYTHRYFPSDTIPTEFSNDREFVLELESSEKNRDIFKHWNEFVVRYFKNDSDREELKNELSDYASAYESGWYEDEDSGDDDM”, the “soluble on expression in E. coli” value is reported as “not soluble”. In the case of “MHGADIKAIVFDLDGTLYEETEHFDYYAERVAKRLREADRRRFWDDYRAVLADCHPLRIGSMYDAKEDLIVWLEEGAVRKAFRWSGEPLTKREIETVYKKPVAVDLDRFFSIGDLWWVSSSIGRHYGLTNEDTYAAFLETREWMMGPEFKMNGAPGLAETLVELHEKAALVLMTNSPEPDSEAILWKLRLADVFHHKIFQAAKPMKTAAHLEAIRARFGVDYRQMLCVGDNIGNDIAPARRLGCRTMLVDTYGLAKQGVADFIVASTSACVPVLRRLL”, the “soluble on expression in E. coli” value is reported as “not soluble”. With “MHHHHHHGSTSLYKKAGSETLYIQGMAEFPASLLILNGKSTDNLPLREAIMLLREEGMTIHVRVTWEKGDAARYVEEARKFGVATVIAGGGDGTINEVSTALIQCEGDDIPALGILPLGTANDFATSVGIPEALDKALKLAIAGDAIAIDMAQVNKQTCFINMATGGFGTRITTETPEKLKAALGSVSYIIHGLMRMDTLQPDRCEIRGENFHWQGDALVIGIGNGRQAGGGQQLCPNALINDGLLQLRIFTGDEILPALVSTLKSDEDNPNIIEGASSWFDIQAPHDITFNLDGEPLSGQNFHIEILPAALRCRLPPDCPLLRSTHHHHHH” the “soluble on expression in E. coli” value was “soluble”. In the case of “MHHHHHHMSWNHQSVEIAVRRTTVPSPNLPPGFDFTDPAIYAERLPVAEFAELRSAAPIWWNGQDPGKGGGFHDGGFWAITKLNDVKEISRHSDVFSSYENGVIPRFKNDIAREDIEVQRFVMLNMDAPHHTRLRKIISRGFTPRAVGRLHDELQERAQKIAAEAAAAGSGDFVEQVSCELPLQAIAGLLGVPQEDRGKLFHWSNEMTGNEDPEYAHIDPKASSAELIGYAMKMAEEKAKNPADDIVTQLIQADIDGEKLSDDEFGFFVVMLAVAGNETTRNSITQGMMAFAEHPDQWELYKKVRPETAADEIVRWATPVTAFQRTALRDYELSGVQIKKGQRVVMFYRSANFDEEVFQDPFTFNILRNPNPHVGFGGTGAHYCIGANLARMTINLIFNAVADHMPDLKPISAPERLRSGWLNGIKHWQVDYTGRCPVAH”, the “soluble on expression in E. coli” value is reported as “soluble”. In the case of “MHHHHHHSSGRENLYFQGGSLLELQKKYHLKGAIGQGSYGVVRVAIENQTRAIRAIKIMNKNKIRQINPKDVERIKTEVRLMKKLHHPNIARLYEVYEDEQYICLVMELCHGGHLLDKLNVFIDDSTGKCAMDVVKTQICPCPECNEEAINGSIHGFRESLDFVQREKLISNIMRQIFSALHYLHNQGICHRDIKPENFLFSTNKSFEIKLVDFGLSKEFYKLNNGEYYGMTTKAGTPYFVAPEVLNTTNESYGPKCDAWSAGVLLHLLLMGAVPFPGVNDADTISQVLNKKLCFENPNYNVLSPLARDLLSNLLNRNVDERFDAMRALQHPWISQFSDKIYKMS”, the “soluble on expression in E. coli” value is reported as “soluble”. For “MHHHHHHSSGVDLGTENLYFQSNAMKNIEKLEQSLTYEFKDKNLLIHALTHKSFKKSYNNERLEFLGDAVLDLVVGEYLFHKFAKDAEGDLSKLRAALVNEKSFAKIANSLNLGDFILMSVAEENNGGKEKPSILSDALEAIIGAIHLEAGFEFAKTIALRLIEKNFPQIDAKILIKDYKTKLQEITQGKIGQTPQYETVRAFGPDHLKQFEIALMLDGKELARAIAGSKKEAQQMAAKIALEKLGAL”, the “soluble on expression in E. coli” value was “soluble”. For “MHHHHHHSSGVDLGTENLYFQSNAMNFKLNNTLSNEINTLIIGIPEHLNQLERISFNHIDITESLERLKHQHIIGSKVGKIYTTAFDVQDQTYRLITVGLGNLKTRSYQDMLKIWGHLFQYIKSEHIEDTYLLMDSFISKYDQLSDVLMACGIQSERATYEFDHYKSSKKAPFKTNLNLISESLIELDFIHEGISIGQSINLARDFSNMPPNVLTPQTFAEDIVNHFKNTKVKVDVKDYDTLVSEGFGLLQAVGKGSKHKPRLVTITYNGKDKDEAPIALVGKGITYDSGGYSIKTKNGMATMKFDMCGAANVVGIIEAASRLQLPVNIVGVLACAENMINEASMKPDDVFTALSGETVEVMNTDAEGRLVLADAVFYANQYQPSVIMDFATLTGAAIVALGDDKAAAFESNSKVILNDILQISSEVDEMVFELPITATERASIKHSDIADLVNHTNGQGKALFAASFVTHFSGQTPHIHFDIAGPATTNKASYNGPKGPTGFMIPTIVQWLKQQ”, the “soluble on expression in E. coli” value was “soluble”. For “MHIADMTMFYAPASGGVRTYLEAKHRHLWHYPGIRHSVLVPGASYRQANGIHEVPAPPLPFGNGYRFPLRRGPWRKVLRNLQPDLIEVGDPYLTAWAALDARRRLDVPVIGFYHSDLPLLVSNRMGAWLGTNADNYVSKLYGHFDRVLAPSRVMAEKLMRLGVADVHVQPLGVDLVTFHPSNRDPGLRQELGLDEETRLLVFAGRGSREKNLPVLLDAIQRLGDGYHLLLVGSNMPTRVPRNTSVVDHFCDSREVARLLASSDALLHAGDQETFGLVALEAMASGIPVVAVRAGALAEIVPERCGVLCAPNNGDAMACAVRELFSHDVELRGQRARRHVERQHAWDAVVAGLLLHYHAVLGDSEARFPRYGLEHHHHHH”, the “soluble on expression in E. coli” value was “not soluble”. For “MHIDNVVFMKKVLDASAFINGYVPEGRENYTVRSVTEEIRDFRSMMILEDALREGRLKITEPDPESMKVVEDAISESGDIMRLSPTDMEVIGLAVSLRGKDDVTVITDDYTIQNTLKILGIGFRSVLTSGIRDTYSWRRVCTGCRRVYPLDYEFEECEICGSRIVRKRHRNLEHHHHHH”, the “soluble on expression in E. coli” value was “soluble”. For “MHIKIDDLTGRQVVSLVNEHLHSMTLMSPPESIHALGLEKLRGPEITFWSAWEGDELAGCGALKELDTRHGEIKSMRTSASHLRKGVAKQVLQHIIEEAEKRGYERLSLETGSMASFEPARKLYESFGFQYCEPFADYGEDPNSVFMTKKLLEHHHHHH”, the “soluble on expression in E. coli” value was “soluble”. With “MHILVTGAAGFIGSHTVLELLNSGYTVLCIDNFANAISDEHGNAISLKRVAQLTGKDVPFQNVDVCDEAALEKVFSENKFDGIIHLAALKAVGESVAKPLQYYSNNLVASLNLIQMCLKYNVKNFVFSSSATVYGPPSELPITEKSQTGQGITNPYGQTKYMMEQILIDVGKANPEWNVVLLRYFNPVGAHKSGLIGEDPKGVPNNLMPYVSQVAIGKLPVLTIYGDQFDTVDGTGVRDYIHVVDLAKGHVKAFDRIKTVGNIGTEIYNLGTGVGYSVRQMVDALKKVSGRDIPVKIGVPRPGDVASVYCDPSLAQEKLGWRAETGLEEMCADLWNWQTKNPQGFSA” the “soluble on expression in E. coli” value was “not soluble”. With “MHILVTGFAPFDNQNINPSWEAVTQLEDIIGTHTIDKLKLPTSFKKVDNIINKTLASNHYDVVLAIGQAGGRNAITPERVAINIDDARIPDNDDFQPIDQAIHLDGAPAYFSNLPVKAMTQSIINQGLPGALSNSAGTFVCNHTLYHLGYLQDKHYPHLRFGFIHVPYIPEQVIGKPDTPSMPLEKIVAGLTAAIEAISNDEDLHLALGTTE” the “soluble on expression in E. coli” value was “not soluble”. With “MHKDTHCAVVIDCWMNKLGEVNFENRPSRYPAFVEDVRKICGTKEIVFGLEDTRGFGRNLAAYLVGRKFEVKHVNPAYTSAVRLANPIIYKDDSYDAYCVARVLRDMVDTLKDAKHEDIFWTIRQMVKRRDLIVKSNVMNKNQLHSQLAYSYPSYRKFFAMIDSKSALCFWENYPSPEYIWNTIPEEIYQTIKPVHQALKIQRIHEIISMIERDGDTRKDYQPERDFIVRNIVKDIRHNKELIAEIDDELRKLIPLTGYKLHTMPGIDLVTEAQIISEIGDINRFPDSDKLARFMGLAPVQFSSAGKGKDQRCRNGNRALNAIFHFLAIQMVAVSASGKPRHPVFREYFEQKVKEGKNKPQALVCVARRLVRIIYGMMKTRTEYRPYEKVDDKN” the “soluble on expression in E. coli” value was “soluble”. For “MHKKADQPFMKEKRGSKLTVRAMPIQSKNLQISGICDVVEFVQDSEGIELSGVSGSYKAFPVEYKRGKPKKGDEDIVQLVAQAMCLEEMLVCRIDKGYLFYNEIKHRVEVPITDALRDKVVQMAKEMHHYYENRHTPKVKTGPFCNNCSLQSICLPKLMNKRSVKRYIEGRLSELEHHHHHH”, the “soluble on expression in E. coli” value was “not soluble”. In the case of “MHKNREKNAMRREVNRADIGGKSGNKVKDCHVTIIRSLLSQIKENSLRVLLTYRKLFTINTKIAVEFIINSCIVYYKRSPHLL”, the “soluble on expression in E. coli” value is reported as “not soluble”. In the case of “MHKYRLVAKKGEGTFSEVLKAQCIKNGKYVAIKCMKNHFDSLDQVNNLREIQALRRLSPHANIIKLLEVLYDQPTGRLALVFELMDMNIYELIRGRRHYVAEERIKNYMYQLMKSMDHMHRNGIFHRDIKPENILIMDDCLKLADFGSCRGIYSKQPYTEYISTRWYRAPECLLTDGYYNYKMDMWGVGCVFFEIVSLFPLFPGTNELDQITKIHNILGTPPPDLLAKMKKRSAHMDFNFPPKEGSGVAKLIPHVNPECVDLIVKLLMYNPDERLSARQALRHPYFRDLREAEKRQKALLAPDVSNHFTAMEADKARQQQTVSSTGSDHEHPTSAGGDGGAGTGAVGTHDGSAAAAAAAAALPSISGARGHAGPEGGHDNDMG”, the “soluble on expression in E. coli” value is reported as “not soluble”. In the case of “MHLYNLTLQGQSAINQAIQGNFSGTPKAQEIVVGRGSALELLTLDTVTGKIKVMCHQDIFGIVRSLLAFRLTAGTRDFIAVGSDSGRIVILQYNAEKTCFERLHQETFGKTGCRRIVPGHFLVGDPRGRALMIGAVERQKLVYIMNRDSEAHLTISSPLEAHKHHTLCYAMVGIDVGFENPTFACLEFDYEDADNDPTGEAAKRTQQTLTFYELDLGLNHVVRKYAEPLNDPGNLLIAVPGGNDGPSGVIVCCENYLVYKNLGDQPDIRCPIPRRRNELDDADRTMLIIATATHKTKNMYFFLVQAENGDIFKVTLETDEDLVSEMKLKYFDTVPPANALCILKSGFLFVAAEFGNHELYQIASLGEGDDDEFSSAMGFGENDAAFFEPHELKSLIPIDSMDSLSPLTDAVIGDIAREDAAQIYSLVGRGARSSLKVLRNGLEISEMAVSDLPGNPNAVWTVKKNIEDQYDSYIVVSFVNATLALTIGDTVEEASDSGFLPTTPTIGCAMIGDDSLVQIYSEGIRHIRADKRINEWKAPPRRQIVKCAVNRRQVAVALTGGELVYFELDLNGTLNEFTERKLFNADIACMTFSEISEGELNSRFLALGTVDNAVRIISLDPNDMLMPLSTQSLPCPPESILLIDTPNEDGKGVAAVHLNIGLQNGCLFRNTVDNVTGAIMDTRTRYLGTRPVKLFKVQCQGRSAILCTSSRSWLLYHFQRRFHLTPLSYANLEYAASFCSNQCSEGIVAISASTLRIIAAEKLGVAFNVQSFEHKMTPRRVAVHPSMPCLIVIETDHASYTEVTKNIKRNQMAADVEAMASDETEAQLAQEIATNLRERRLDERVYGAPRAARGKWASAISLISATSGDKLSYFELPQDENAKCVALVQFSKHPNEAMVLVGCGVNEVLNVHDIDPNDTSIRPTRGCVYTFHLSANGDRFDFLHRTETPLPVGAIHDFRGMALVGFGRFLRMYDIGQKKLLAKCENKNFPVSIVNIQSTGQRIIVSDSQESVHFLRYRKGDNQLVVFADDTTPRYVTCVCVLDYHTVAVADKFGNLAVVRLPERVNEDVQDDPTVSKSVWDRGWLNGASQKVELVSNFFIGDTITSLQKTSLMPGANEALVYTTIGGAIGCLVSFMSKDEVDFFTNLEMHVRSEYPPLCGRDHLAYRSYYAPCKSVIDGDICEQFSLMDTQKQKDVAEELGKTVSEISKKLEDIRTRYAF”, the “soluble on expression in E. coli” value is reported as “not soluble”.
